Experimental data as given in US20240383984A1 (Genentech, published 2024).

T1: human FcRH5 protein fragment (soluble) (human, UniProt Q96RD9 16-851)
T1 construct: whole entry named; also called soluble human FcRH5; Human FcRH5 (BIACORE analyte)
T1 sequence: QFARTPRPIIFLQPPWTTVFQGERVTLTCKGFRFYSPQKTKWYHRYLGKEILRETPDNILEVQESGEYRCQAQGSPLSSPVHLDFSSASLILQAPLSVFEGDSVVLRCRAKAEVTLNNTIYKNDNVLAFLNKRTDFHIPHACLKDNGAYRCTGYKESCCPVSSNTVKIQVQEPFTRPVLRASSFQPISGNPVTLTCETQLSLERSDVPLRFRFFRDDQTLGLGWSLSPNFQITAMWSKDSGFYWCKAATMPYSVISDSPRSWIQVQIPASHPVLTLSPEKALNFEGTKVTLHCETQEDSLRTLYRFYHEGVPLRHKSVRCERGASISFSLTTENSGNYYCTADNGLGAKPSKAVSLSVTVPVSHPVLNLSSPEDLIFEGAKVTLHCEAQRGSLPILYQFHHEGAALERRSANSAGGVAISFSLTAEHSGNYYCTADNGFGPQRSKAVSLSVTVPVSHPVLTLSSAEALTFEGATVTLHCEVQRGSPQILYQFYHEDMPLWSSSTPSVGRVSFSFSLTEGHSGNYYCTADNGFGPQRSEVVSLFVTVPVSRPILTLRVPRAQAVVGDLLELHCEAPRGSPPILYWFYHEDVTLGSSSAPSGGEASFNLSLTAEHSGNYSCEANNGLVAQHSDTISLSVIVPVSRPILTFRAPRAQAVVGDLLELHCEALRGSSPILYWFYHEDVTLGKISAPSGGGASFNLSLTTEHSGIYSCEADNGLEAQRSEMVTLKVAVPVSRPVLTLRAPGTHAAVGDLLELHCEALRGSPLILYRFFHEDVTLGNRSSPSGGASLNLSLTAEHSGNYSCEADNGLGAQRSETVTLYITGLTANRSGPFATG

B1: hu1G7.v86 (antibody, human IgG1, V domains shown)
VH: EVQLVESGPGLVKPSETLSLTCTVSGFSLTRFGVHWVRQPPGKGLEWLGVIWRGGSTDYNAAFVSRLTISKDNSKNQVSLKLSSVTAADTAVYYCSNHYYGSSDYALDNWGQGTLVTVSS
VL: DIQMTQSPSSLSASVGDRVTITCKASQDVSNLVVWFQQKPGKSPKLLIYSGSYRYSGVPSRFSGSGSGTDFTLTISSLQPEDFATYYCQQHYSPPYTFGQGTKVEIK
notes: human IgG1
B2: hu1G7.v92 (antibody, human IgG1, V domains shown)
VH: EVQLVESGPGLVKPSETLSLTCTVSGFSLTRFGVHWVRQPPGKGLEWLGVIWRGGSTDYNAAFVSRLTISKDNSKNQVSLKLSSVTAADTAVYYCSNHYYGSPDYALDNWGQGTLVTVSS
VL: DIQMTQSPSSLSASVGDRVTITCKASQDVSNLVVWFQQKPGKSPKLLIYSGSYRYSGVPSRFSGSGSGTDFTLTISSLQPEDFATYYCQQHYSPPYTFGQGTKVEIK
notes: human IgG1
B3: hu1G7.v91 (antibody, human IgG1, V domains shown)
VH: EVQLVESGPGLVKPSETLSLTCTVSGFSTTRFGVHWVRQPPGKGLEWLGVIWRGGSTDYNAAFVSRLTISKDNSKNQVSLKLSSVTAADTAVYYCSNHYYGSSDYALDNWGQGTLVTVSS
VL: DIQMTQSPSSLSASVGDRVTITCKASQDVSNLVVWFQQKPGKSPKLLIYSGSYRYSGVPSRFSGSGSGTDFTLTISSLQPEDFATYYCQQHYSPPYTFGQGTKVEIK
B4: hu1G7.v93 (antibody, human IgG1, V domains shown)
VH: EVQLVESGPGLVKPSETLSLTCTVSGFSTTRFGVHWVRQPPGKGLEWLGVIWRGGSTDYNAAFVSRLTISKDNSKNQVSLKLSSVTAADTAVYYCSNHYYGSPDYALDNWGQGTLVTVSS
VL: DIQMTQSPSSLSASVGDRVTITCKASQDVSNLVVWFQQKPGKAPKLLIYSGSYRYSGVPSRFSGSGSGTDFTLTISSLQPEDFATYYCQQHYSPPYTFGQGTKVEIK
notes: human IgG1

target: T1, human FcRH5 protein fragment (soluble); test: BIACORE, human IgG1, soluble human FcRH5

First: B1
Second: B2
The “Fold improvement over hu1G7.v1” value of the first is lower: 10.3 fold for the first, 15.9 fold for the second.

With B4 the “Fold improvement over hu1G7.v1” value was 25.3 fold.

Compared with B1, B2 is 1.6-fold lower in Kd: 1.4 nM for the first, 0.9 nM for the second.

B3 and B4 are within 1.5-fold of each other in Kd: 0.7 nM for the first, 0.6 nM for the second.

First: B2
Second: B4
The “Fold improvement over hu1G7.v86” value of the first is lower: 1.5 fold for the first, 2.5 fold for the second.
